Test results reported in the supplement of paper PMC7877785.
± gives the uncertainty stated by the source.

Test: self-splicing fitness, log relative to wild type (ln ratio); higher = more splicing; Tetrahymena group I intron in knt gene, E. coli kanamycin selection, DiMSum; sequences stand for … in CUCUCU…GGAGGGAAAAGUUAUCAGGCAUGCACCUGGUAGCUAGUCUUUAAACCAAUAGAUUGCAUCGGUUUAAAAGGCAAGACCGUCAAAUUGCGGGAAAGGGGUCAACAGCCGUUCAGUACCAAGUCUCAGGGGAAACUUUGAGAUGGCCUUGCAAAGGGUAUGGUAAUAAGCUGACGGACAUGGUCCUAACCACGCAGCCAAGUCCUAAGUCAACAGAUCUUCUGUUGAUAUGGAUGCAGUUCACAGACUAAAUGUCGGUCGGGGAAGAUGUAUUCUUCUCAUAAGAUAUAGUCGGACCUCUCCUUAAUGGGAGCUAGCGGAUGAAGUGAUGCAACACUGGAGCCGCUGGGAACUAAUUUGUAUGCGAAAGUAUAUUGAUUAGUUUUGGAGUACUCGUGGUCG
In short: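 Six replicate transformations of E. coli BL21(DE3) with a pET-22b(+) library were grown overnight at 37°C or 30°C. The library randomised all eight P1ex-region intron nucleotides, the intron lying in the knt kanamycin-resistance gene, and plates were LB agar with or without 25 μg/mL kanamycin plus 100 μg/mL carbenicillin, 50 μM IPTG and 0.2% rhamnose. Pooled colonies were amplicon-sequenced on an Illumina HiSeq 2500, and fitness is the DiMSum error-weighted combination of wild-type-normalised replicate fold changes, kanamycin versus none.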

Sequence	self-splicing fitness (ln) (30 °C)	self-splicing fitness (ln) (37 °C)
UUACAGCAAUAUUACGUUGU	-2.98 ± 0.13	-2.57 ± 0.16
UUAGAGCAAUAUUACGAAAU	-3.77 ± 0.34	-3.04 ± 0.47
UUAGAGCAAUAUUACGACCC	-2.63 ± 0.49	-1.74 ± 0.49
UUAGAGCAAUAUUACGACUA	-1.13 ± 0.31	-0.676 ± 0.32
UUAGAGCAAUAUUACGAGUU		-2.05 ± 0.39
UUAGAGCAAUAUUACGAUGA	0.174 ± 0.1	0.371 ± 0.14
UUAGAGCAAUAUUACGAUUA	-1.07 ± 0.11	-0.181 ± 0.13
UUAGAGCAAUAUUACGAUUC	-2.62 ± 0.25	-2.44 ± 0.35
UUAGAGCAAUAUUACGCAGU	-3.64 ± 0.32	-3.17 ± 0.47
UUAGAGCAAUAUUACGCCAG	-0.402 ± 0.15	0.228 ± 0.23
UUAGAGCAAUAUUACGCCCA	-1.04 ± 0.19	-0.676 ± 0.3
UUAGAGCAAUAUUACGCUAA	-1.93 ± 0.24	-0.588 ± 0.36
UUAGAGCAAUAUUACGCUUU	-3.62 ± 0.37	-2.02 ± 0.32
UUAGAGCAAUAUUACGGAAU	-3.79 ± 0.29	-2.81 ± 0.25
UUAGAGCAAUAUUACGGCCG	-0.608 ± 0.15	-0.234 ± 0.23
UUAGAGCAAUAUUACGGCGU	-1.73 ± 0.14	-1.12 ± 0.22
UUAGAGCAAUAUUACGGCUA	-0.0336 ± 0.14	0.4 ± 0.17
UUAGAGCAAUAUUACGGGCU	-2.53 ± 0.32	
UUAGAGCAAUAUUACGUAUC	-3.29 ± 0.48	-1.22 ± 0.34
UUAGAGCAAUAUUACGUAUU	-5.06 ± 0.45	-2.91 ± 0.35
UUAGAGCAAUAUUACGUCGU	-3.46 ± 0.4	-1.26 ± 0.21
UUAGAGCAAUAUUACGUCUG	-0.606 ± 0.11	-0.672 ± 0.12
UUAGAGCAAUAUUACGUGUG	-1.27 ± 0.09	-1.11 ± 0.14
UUAGAGCAAUAUUACGUUCA	-0.27 ± 0.14	-0.536 ± 0.17
UUAGAGCAAUAUUACGUUUC	-3.04 ± 0.2	

Sequence	self-splicing fitness (ln) (30 °C)	self-splicing fitness (ln) (37 °C)
UUAUAGCAAUAUUACGAAAG	-3.47 ± 0.37	-2.69 ± 0.38
UUAUAGCAAUAUUACGAAGU	-3.61 ± 0.45	-2.44 ± 0.28
UUAUAGCAAUAUUACGACUC	-1.94 ± 0.19	-1.94 ± 0.24
UUAUAGCAAUAUUACGAGAG		-0.556 ± 0.26
UUAUAGCAAUAUUACGAGGU		-2.14 ± 0.37
UUAUAGCAAUAUUACGAUAG	-0.194 ± 0.16	-0.527 ± 0.16
UUAUAGCAAUAUUACGCACG	-1.18 ± 0.15	-0.14 ± 0.18
UUAUAGCAAUAUUACGCGAU	-2.8 ± 0.37	-2.23 ± 0.46
UUAUAGCAAUAUUACGCGCC	-1.96 ± 0.23	-2.14 ± 0.3
UUAUAGCAAUAUUACGCUCA	-0.877 ± 0.38	-1.09 ± 0.42
UUAUAGCAAUAUUACGCUCG	0.392 ± 0.25	0.206 ± 0.22
UUAUAGCAAUAUUACGGAAG	-2.21 ± 0.26	-1.77 ± 0.26
UUAUAGCAAUAUUACGGAUG	-2.85 ± 0.16	-1.09 ± 0.15
UUAUAGCAAUAUUACGGCAA	-0.0783 ± 0.11	-0.348 ± 0.1
UUAUAGCAAUAUUACGGCUG	0.0456 ± 0.07	0.442 ± 0.1
UUAUAGCAAUAUUACGUACG	-1.03 ± 0.12	-0.0555 ± 0.17
UUAUAGCAAUAUUACGUAGG	-1.75 ± 0.14	-0.198 ± 0.17
UUAUAGCAAUAUUACGUAGU	-3.03 ± 0.24	-2.71 ± 0.4
UUAUAGCAAUAUUACGUCCA	-1.54 ± 0.26	-0.846 ± 0.29
UUAUAGCAAUAUUACGUCCU	-3.3 ± 0.34	-1.78 ± 0.27
UUAUAGCAAUAUUACGUCUC	-3.25 ± 0.33	-2.13 ± 0.3
UUAUAGCAAUAUUACGUGAA	-1.91 ± 0.18	-0.849 ± 0.17
UUAUAGCAAUAUUACGUGGG	-3.41 ± 0.26	-2.15 ± 0.23
UUCAAGCAAUAUUACGAAAA	-0.341 ± 0.15	-0.222 ± 0.18
UUCAAGCAAUAUUACGAAGA	-2.03 ± 0.19	-1.26 ± 0.19

Sequence	self-splicing fitness (ln) (30 °C)	self-splicing fitness (ln) (37 °C)
UUCAAGCAAUAUUACGACCU	-2.33 ± 0.27	-0.916 ± 0.18
UUCAAGCAAUAUUACGACUA	0.15 ± 0.12	0.446 ± 0.14
UUCAAGCAAUAUUACGAGGA	-2.22 ± 0.14	-1.43 ± 0.13
UUCAAGCAAUAUUACGCAAA	-1.96 ± 0.16	-0.991 ± 0.15
UUCAAGCAAUAUUACGCACU	0.0955 ± 0.12	-0.66 ± 0.14
UUCAAGCAAUAUUACGCAGC	-1.85 ± 0.16	-2.72 ± 0.31
UUCAAGCAAUAUUACGCAGU	-3.44 ± 0.27	-3.62 ± 0.42
UUCAAGCAAUAUUACGCAUA	-1.24 ± 0.096	-0.0175 ± 0.1
UUCAAGCAAUAUUACGCCCA	-0.837 ± 0.24	0.3 ± 0.21
UUCAAGCAAUAUUACGCCGU	-2.25 ± 0.2	-1.46 ± 0.19
UUCAAGCAAUAUUACGCCUC	-1.59 ± 0.14	-1.34 ± 0.16
UUCAAGCAAUAUUACGGAAA	-1.83 ± 0.11	-1.12 ± 0.1
UUCAAGCAAUAUUACGGAAC	-3 ± 0.27	
UUCAAGCAAUAUUACGGAGU	-3.82 ± 0.27	-2.56 ± 0.23
UUCAAGCAAUAUUACGGCAU	-1.71 ± 0.065	-0.546 ± 0.075
UUCAAGCAAUAUUACGGCUG	-2.62 ± 0.15	-1.52 ± 0.2
UUCAAGCAAUAUUACGGGAC	-2.58 ± 0.16	-2.43 ± 0.28
UUCAAGCAAUAUUACGGUAA	-0.679 ± 0.097	0.0151 ± 0.1
UUCAAGCAAUAUUACGUCUA	-0.495 ± 0.09	0.538 ± 0.081
UUCAAGCAAUAUUACGUGUC	-2.84 ± 0.11	-2.45 ± 0.14
UUCCAGCAAUAUUACGACUU	-1.5 ± 0.18	-0.653 ± 0.2
UUCCAGCAAUAUUACGAGUA	-1.12 ± 0.07	0.0282 ± 0.078
UUCCAGCAAUAUUACGCACC	-2.48 ± 0.3	-1.55 ± 0.26
UUCCAGCAAUAUUACGCCAC		-1.86 ± 0.34
UUCCAGCAAUAUUACGGACU	-2.17 ± 0.14	-0.74 ± 0.15

Sequence	self-splicing fitness (ln) (30 °C)	self-splicing fitness (ln) (37 °C)
UUCCAGCAAUAUUACGGCCU	-4.05 ± 0.42	-1.58 ± 0.17
UUCCAGCAAUAUUACGGGGU	-3.02 ± 0.12	-2.81 ± 0.17
UUCCAGCAAUAUUACGGUAU	-2.13 ± 0.11	-1.5 ± 0.12
UUCCAGCAAUAUUACGGUCA	-0.23 ± 0.084	0.239 ± 0.1
UUCCAGCAAUAUUACGGUCG	-0.395 ± 0.081	0.623 ± 0.11
UUCCAGCAAUAUUACGGUGG	-3.89 ± 0.27	-3.15 ± 0.24
UUCCAGCAAUAUUACGGUUA	0.496 ± 0.085	0.423 ± 0.087
UUCCAGCAAUAUUACGUAAG	-1.42 ± 0.066	-0.28 ± 0.095
UUCCAGCAAUAUUACGUAAU	-2.36 ± 0.11	-0.639 ± 0.12
UUCCAGCAAUAUUACGUAUA	-1.01 ± 0.17	-1.26 ± 0.16
UUCCAGCAAUAUUACGUCAA	-1.3 ± 0.1	-0.233 ± 0.12
UUCCAGCAAUAUUACGUGAU	-1.08 ± 0.044	-0.294 ± 0.063
UUCCAGCAAUAUUACGUUUG	-4.67 ± 0.46	-2.83 ± 0.24
UUCGAGCAAUAUUACGACAA	-0.778 ± 0.23	0.45 ± 0.23
UUCGAGCAAUAUUACGACCU	-1.7 ± 0.43	1.25 ± 0.38
UUCGAGCAAUAUUACGACGC		-2.67 ± 0.48
UUCGAGCAAUAUUACGAGAC	-0.119 ± 0.49	
UUCGAGCAAUAUUACGAGUU	-1.62 ± 0.18	-0.549 ± 0.17
UUCGAGCAAUAUUACGAUGG	-3.47 ± 0.26	-1.45 ± 0.33
UUCGAGCAAUAUUACGCAAU		-2.13 ± 0.43
UUCGAGCAAUAUUACGCGUG	-1.06 ± 0.13	-0.676 ± 0.14
UUCGAGCAAUAUUACGGAGU		-2.26 ± 0.32
UUCGAGCAAUAUUACGGAUC		-1.85 ± 0.48
UUCGAGCAAUAUUACGGAUG	-3.22 ± 0.38	-2.86 ± 0.32
